First the molecules themselves.
B1: MBP-TRAK1_(342-431) (domain or fragment)
chain: EAQEELKNLRNKTMPNTTSRRYHSLGLFPMDSLAAEIEGTMRKELQLEEAESPDITHQKRVFETVRNINQVVKQRSLTPSPMNIPGSNQS
B2: MIRO1_(177-591) (domain or fragment)
chain: EEKEMKPACIKALTRIFKISDQDNDGTLNDAELNFFQRICFNTPLAPQALEDVKNVVRKHISDGVADSGLTLKGFLFLHTLFIQRGRHETTWTVLRRFGYDDDLDLTPEYLFPLLKIPPDCTTELNHHAYLFLQSTFDKHDLDRDCALSPDELKDLFKVFPYIPWGPDVNNTVCTNERGWITYQGFLSQWTLTTYLDVQRCLEYLGYLGYSILTEQESQASAVTVTRDKKIDLQKKQTQRNVFRCNVIGVKNCGKSGVLQALLGRNLMRQKKIREDHKSYYAINTVYVYGQEKYLLLHDISESEFLTEAEIICDVVCLVYDVSNPKSFEYCARIFKQHFMDSRIPCLIVAAKSDLHEVKQEYSISPTDFCRKHKMPPPQAFTCNTADAPSKDIFVKLTTMAMYPHVTQADLKSST

In assay [1] the target is B2. The experiment in a line: ITC.
In assay [2] the target is B2. In words: ITC. This is another data set of the same source.
Assay [3] concerns the target B2. The experiment in a line: ITC. This is another data set of the same source.
In assay [4] the target is T1, MIRO1_(177-591) E208A (human, UniProt Q8IXI2 177-591, E208A). The experiment in a line: ITC; 5 mM EGTA.
Assay [5] concerns the target T2, MIRO1_(177-591) E328A (human, UniProt Q8IXI2 177-591, E328A). The experiment in a line: ITC; 5 mM EGTA.
The target in assay [6] is T1, MIRO1_(177-591) E208A. In words: ITC; 5 mM EGTA, 1 mM MgCl2, 0.1 uM GTP; experiment 3.
The target in assay [7] is T2, MIRO1_(177-591) E328A. The assay is described as above.
Assay [8] has as its target T1, MIRO1_(177-591) E208A. In words: ITC; 5 mM EGTA, 1 mM MgCl2, 0.1 uM GTP; experiment 2.
Assay [9] addresses T2, MIRO1_(177-591) E328A. The assay is described as above.
The target of assay [10] is T1, MIRO1_(177-591) E208A. The experiment in a line: ITC; 5 mM EGTA, 1 mM MgCl2, 0.1 uM GTP; experiment 1.
The target in assay [11] is T2, MIRO1_(177-591) E328A. The description is as above.
For assay [12], the target named is T3, MBP-TRAK1_(342-431) ^400KR^401 to AA (human, UniProt Q9UPV9 342-431, ^400KR^401 to AA).
T3 sequence: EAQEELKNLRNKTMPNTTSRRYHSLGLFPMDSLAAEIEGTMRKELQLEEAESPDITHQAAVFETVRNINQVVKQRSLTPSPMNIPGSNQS
In words: ITC; 5 mM EGTA; MIRO1 in syringe.

Assay [13] addresses T3, MBP-TRAK1_(342-431) ^400KR^401 to AA. In words: ITC; 5 mM EGTA, 1 mM MgCl2, 0.1 uM GTP; experiment 3.
Assay [14] shares this target. In words: ITC; 5 mM EGTA; TRAK1 in syringe.
For assay [15] the target is unchanged. In words: ITC; 5 mM EGTA, 1 mM MgCl2, 0.1 uM GTP; experiment 2.
For assay [16] the target is unchanged. In words: ITC; 5 mM EGTA, 1 mM MgCl2, 0.1 uM GTP; experiment 1.
The target is the same in assay [17]. In words: ITC; 5 mM EGTA, 1 mM MgCl2, 0.1 uM GTP; reverse titration, experiment 1.
Assay [18] shares this target. In words: ITC; 5 mM EGTA, 1 mM MgCl2, 0.1 uM GTP; reverse titration, experiment 3.
For assay [19] the target is unchanged. In words: ITC; 5 mM EGTA, 1 mM MgCl2, 0.1 uM GTP; reverse titration, experiment 2.
Assay [20] addresses T4, GCN4-TRAK1_(342-431) ( | human, UniProt Q9UPV9 342-431).
T4 chain: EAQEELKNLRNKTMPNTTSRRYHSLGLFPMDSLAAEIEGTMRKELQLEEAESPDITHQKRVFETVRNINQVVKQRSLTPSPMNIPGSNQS
The experiment in a line: ITC.

For assay [21], the target named is B1. The experiment in a line: ITC.

Several values for one entry are separate records, joined by “and”; a condition that tells them apart may be missing. Identical values can stand only once. Like-named read-outs stand apart in the source and are kept apart here.

On to PDITHQKRVFETVRNINQVVKQRSLTPSPMNIPGSNQSSAM [TRAK1_(394-434)], for which the Kd in assay [1] was 4.39 µM; in assay [2], 9.62 µM and 6.1 µM and 5.65 µM.
With B1, the Kd was found to be 10.6 µM in [3]; 9.09 µM in [4]; 10.1 µM in assay [5]; 3.86 µM in assay [6]; 10.3 µM in assay [7]; 9.09 µM in assay [8]. Moreover, the Kd in assay [9] is 10.1 µM; in [10] it was 8.85 µM; in assay [11], 9.17 µM.
Take B2: the Kd was found to be 7.52 µM in assay [12]; 3.98 µM in [13]; 9.62 µM in assay [14]; 2.98 µM in [15]; 4.39 µM in assay [16]; 7.52 µM in [17]. The Kd in assay [18] was 8.55 µM; in assay [19] it was 11.3 µM; in assay [20] it was 3.52 µM and 9.35 µM; in assay [21], 5.95 µM and 6.02 µM and 8 µM and 5.38 µM.

These data come from article PMC10746525 (2023).
